The record followed here is article doi:10.1101/2025.04.29.650001 (bioRxiv, 2025).

Positions count from the first letter of the chain named.

The series deals with the molecule itself. Put plainly: crystal structure.

B1: Fluoroacetate dehalogenase (FAcD) wild type (enzyme, Rhodopseudomonas palustris, UniProt Q6NAM1 1-302, looked up)
chain: MPDLADLFPGFGSEWINTSSGRIFARVGGDGPPLLLLHGFPQTHVMWHRVAPKLAERFKVIVADLPGYGWSDMPESDEQHTPYTKRAMAKQLIEAMEQLGHVHFALAGHDRGARVSYRLALDSPGRLSKLAVLDILPTYEYWQRMNRAYALKIYHWSFLAQPAPLPENLLGGDPDFYVKAKLASWTRAGDLSAFDPRAVEHYRIAFADPMRRHVMCEDYRAGAYADFEHDKIDVEAGNKIPVPMLALWGASGIAQSAATPLDVWRKWASDVQGAPIESGHFLPEEAPDQTAEALVRFFSAAP
B1: the binding result is “binds”.

B2: Fluoroacetate dehalogenase (FAcD) Ser157Ala (enzyme, Rhodopseudomonas palustris, UniProt Q6NAM1 1-302, looked up)
chain: B1 chain with S157A
In the case of B2, the binding result is given as “binds”.

B3: Fluoroacetate dehalogenase (FAcD) Ser157Thr (enzyme, Rhodopseudomonas palustris, UniProt Q6NAM1 1-302, looked up)
chain: B1 chain with S157T
With B3, the binding result was “binds”.
